Results reported in article PMC3401278 (ACS Chemical Biology, 2012).
Read-outs that look alike come from different tables or passages of the source. Where no end group is shown, it is not given here. The star is where a group is joined. FITC = O=C1OC2(c3ccc(O)cc3Oc3cc(O)ccc32)c2ccc(NC(=S)*)cc21; βAla = NCCC(=O)O

How the values were obtained:
E. coli His6-LpxD [1] = target: T1, E. coli His6-LpxD (Escherichia coli, UniProt P21645); experiment: Fluorescence polarization direct binding of FITC-labeled peptide to His6-LpxD; details: at up to 180 μM LpxD
E. coli LpxA = E. coli LpxA (Escherichia coli, UniProt P0A722); experiment: Fluorescence polarization competition binding assay, LpxA
LpxA = LpxA (Escherichia coli, UniProt P0A722); experiment: Continuous fluorescent acyltransferase inhibition assay; assay type: biochemical, E. coli; details: pH 7.5
E. coli His6-LpxD [2] = target: T1, E. coli His6-LpxD; experiment: biochemical; assay type: binding
[3] = target: T2, E. coli His6-LpxD (UDP-3-O-(R-3-hydroxyacyl)glucosamine N-acyltransferase) (E. coli, UniProt P21645 1-341); experiment: fluorescence polarisation
T2 sequence (looked up): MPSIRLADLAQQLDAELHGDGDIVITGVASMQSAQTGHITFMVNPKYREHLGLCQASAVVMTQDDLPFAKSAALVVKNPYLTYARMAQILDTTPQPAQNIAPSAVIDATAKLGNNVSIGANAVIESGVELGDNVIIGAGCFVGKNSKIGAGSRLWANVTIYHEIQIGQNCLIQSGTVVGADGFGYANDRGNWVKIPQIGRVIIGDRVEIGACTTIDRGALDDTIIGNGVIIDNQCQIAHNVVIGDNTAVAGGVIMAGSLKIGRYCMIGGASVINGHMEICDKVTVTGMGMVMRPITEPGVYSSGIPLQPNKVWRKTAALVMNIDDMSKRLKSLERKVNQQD

[4] = target: T3, E. coli LpxA (UDP-N-acetylglucosamine acyltransferase), native (E. coli, UniProt P0A722 1-262); experiment: fluorescence polarisation
T3 sequence (looked up): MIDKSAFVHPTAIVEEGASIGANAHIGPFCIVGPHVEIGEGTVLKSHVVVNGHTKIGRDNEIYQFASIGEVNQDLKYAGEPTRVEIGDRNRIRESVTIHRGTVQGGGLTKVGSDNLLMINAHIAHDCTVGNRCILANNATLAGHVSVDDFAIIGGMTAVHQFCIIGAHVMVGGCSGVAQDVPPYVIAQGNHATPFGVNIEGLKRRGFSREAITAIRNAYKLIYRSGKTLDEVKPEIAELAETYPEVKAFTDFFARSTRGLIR

[5] = target: T2, E. coli His6-LpxD …; experiment: fluorescence polarisation; remark: listed apart in the source

**Q.** Which “ΔmP with LpxD, fluorophore alone” value (E. coli His6-LpxD [1]) does the source give for β-alanyl-fluorescein here?
**A.** Its value is ~ 26 mP.

**Q.** Which Kd (E. coli LpxA) does the source give for SENNFMLPLLPL-NH2 [RJPXD34] here?
**A.** Its Kd is greater than 300 µM.

**Q.** What about the “LpxA IC50” value (LpxA) of the same molecule?
**A.** The value was “did not inhibit”.

**Q.** With `CC[C@H](C)[C@H](NC(=O)[C@@H]1CCCN1C(=O)[C@H](CC(=O)O)NC(=O)[C@H](CC(C)C)NC(=O)[C@H](CCSC)NC(=O)[C@H](Cc1c[nH]c2ccccc12)NC(=O)CNC(=O)[C@H](CO)NC(=O)[C@@H](N)CO)C(=O)N[C@@H](C)C(=O)NCC(=O)N[C@@H](CCCCN)C(=O)N[C@@H](Cc1c[nH]c2ccccc12)C(=O)N[C@@H](CO)C(=O)N[C@@H](CCCNC(=N)N)C(N)=O` [P920] as the molecule, how does the Kd (E. coli His6-LpxD [2]) read?
**A.** The Kd was greater than 300 µM.

B1: FITC-RJPXD33 (FITC-(βA)TNLYMLPKWDIP-NH2) (peptide)
peptide: {FITC-βAla}-TNLYMLPKWDIP-NH2
SMILES: CC[C@H](C)[C@H](NC(=O)[C@H](CC(=O)O)NC(=O)[C@H](Cc1c[nH]c2ccccc12)NC(=O)[C@H](CCCCN)NC(=O)[C@@H]1CCCN1C(=O)[C@H](CC(C)C)NC(=O)[C@H](CCSC)NC(=O)[C@H](Cc1ccc(O)cc1)NC(=O)[C@H](CC(C)C)NC(=O)[C@H](CC(N)=O)NC(=O)[C@@H](NC(=O)CCNC(=S)Nc1ccc2c(c1)C(=O)OC21c2ccc(O)cc2Oc2cc(O)ccc21)[C@@H](C)O)C(=O)N1CCC[C@H]1C(N)=O
**Q.** Which Kd [3] does the source give for B1 here?
**A.** Its Kd is 0.6 ± 0.04 µM.

B2: RJPXD31 (QHFMVPDINDMQ-NH2) (peptide)
peptide: QHFMVPDINDMQ-NH2
**Q.** Which results are given for B2?
**A.** Kd [4]: 119 ± 9 µM; Kd [5]: 41 ± 3 µM

B3: RJPXD34 (SENNFMLPLLPL-NH2) (peptide)
peptide: SENNFMLPLLPL-NH2
**Q.** Which Kd [5] does the source give for B3 here?
**A.** The Kd was 31 ± 1.5 µM.

B4: RJPXD33 (TNLYMLPKWDIP-NH2) (peptide)
peptide: TNLYMLPKWDIP-NH2
**Q.** Which results are given for B4?
**A.** Kd [4]: 22 ± 2.1 µM; Kd [5]: 6.5 ± 0.2 µM
